{"source": "paper PMC6748613", "assay_in_all_cases": "AUC", "key": {"[1]": {"target": "bH1 Fab variant Y^H33-M^H98-G^H99-S^L30b"}, "[2]": {"target": "bH1 Fab variant Y^H33-F^H98-G^H99-S^L30b"}, "[3]": {"target": "bH1 Fab variant Y^H33-W^H98-G^H99-S^L30b"}, "[4]": {"target": "bH1 Fab variant Y^H33-D^H98-G^H99-R^L30b"}, "[5]": {"target": "bH1 Fab variant W^H33-D^H98-G^H99-S^L30b"}, "[6]": {"target": "bH1 Fab variant Y^H33-M^H98-M^H99-S^L30b"}, "[7]": {"target": "bH1 Fab variant W^H33-W^H98-D^H99-R^L30b"}, "[8]": {"target": "bH1 Fab variant W^H33-W^H98-G^H99-S^L30b"}, "[9]": {"target": "bH1 Fab variant W^H33-M^H98-D^H99-R^L30b"}}, "data": [{"substance": "bH1 Fab variant Y^H33-M^H98-G^H99-S^L30b", "values": [{"measurement": "Kd", "setting": "[1]", "value": 179, "unit": "mM"}, {"measurement": "dimer % at 1 mg/mL", "setting": "[1]", "value": 1.4, "unit": "%"}]}, {"substance": "bH1 Fab variant Y^H33-F^H98-G^H99-S^L30b", "values": [{"measurement": "Kd", "setting": "[2]", "value": 1.29, "unit": "mM"}, {"measurement": "dimer % at 1 mg/mL", "setting": "[2]", "value": 1, "unit": "%"}]}, {"substance": "bH1 Fab variant Y^H33-W^H98-G^H99-S^L30b", "values": [{"measurement": "Kd", "setting": "[3]", "value": 5.73, "unit": "mM"}, {"measurement": "dimer % at 1 mg/mL", "setting": "[3]", "value": 2.8, "unit": "%"}]}, {"substance": "bH1 Fab variant Y^H33-D^H98-G^H99-R^L30b", "values": [{"measurement": "Kd", "setting": "[4]", "value": 8.94, "unit": "mM"}]}, {"substance": "bH1 Fab variant W^H33-D^H98-G^H99-S^L30b", "values": [{"measurement": "Kd", "setting": "[5]", "value": 1470, "unit": "mM"}, {"measurement": "dimer % at 1 mg/mL", "setting": "[5]", "value": 1.2, "unit": "%"}]}, {"substance": "bH1 Fab variant Y^H33-M^H98-M^H99-S^L30b", "values": [{"measurement": "Kd", "setting": "[6]", "value": 19.9, "unit": "mM"}]}, {"substance": "bH1 Fab variant W^H33-W^H98-D^H99-R^L30b", "values": [{"measurement": "Kd", "setting": "[7]", "value": 1.33, "unit": "mM"}, {"measurement": "dimer % at 1 mg/mL", "setting": "[7]", "value": 1.2, "unit": "%"}]}, {"substance": "bH1 Fab variant W^H33-W^H98-G^H99-S^L30b", "values": [{"measurement": "Kd", "setting": "[8]", "value": 2.68, "unit": "mM"}, {"measurement": "dimer % at 1 mg/mL", "setting": "[8]", "value": 1.4, "unit": "%"}]}, {"substance": "bH1 Fab variant W^H33-M^H98-D^H99-R^L30b", "values": [{"measurement": "Kd", "setting": "[9]", "value": 3.98, "unit": "mM"}]}]}
